Ends that are not written are not given here. * marks the point of attachment. Palmitoyl = CCCCCCCCCCCCCCCC(=O)*
B1: CXCR-4 receptor Compound No. 43 (peptide)
peptide: Palmitoyl-KKLRSMTDKYRLH-NH2
SMILES: CCCCCCCCCCCCCCCC(=O)N[C@@H](CCCCN)C(=O)N[C@@H](CCCCN)C(=O)N[C@@H](CC(C)C)C(=O)N[C@@H](CCCNC(=N)N)C(=O)N[C@@H](CO)C(=O)N[C@@H](CCSC)C(=O)N[C@H](C(=O)N[C@@H](CC(=O)O)C(=O)N[C@@H](CCCCN)C(=O)N[C@@H](Cc1ccc(O)cc1)C(=O)N[C@@H](CCCNC(=N)N)C(=O)N[C@@H](CC(C)C)C(=O)N[C@@H](Cc1c[nH]cn1)C(N)=O)[C@@H](C)O
B2: CXCR4 i1 loop compound 48 (peptide)
peptide: MGYQKKLRSMTDKYRI-NH2
modifications: not fully specified (N-terminus); also: further groups not given here
B3: CXCR4 i1 loop compound 46 (peptide)
peptide: Palmitoyl-KKLRSMTDKY-NH2
SMILES: CCCCCCCCCCCCCCCC(=O)N[C@@H](CCCCN)C(=O)N[C@@H](CCCCN)C(=O)N[C@@H](CC(C)C)C(=O)N[C@@H](CCCNC(=N)N)C(=O)N[C@@H](CO)C(=O)N[C@@H](CCSC)C(=O)N[C@H](C(=O)N[C@@H](CC(=O)O)C(=O)N[C@@H](CCCCN)C(=O)N[C@@H](Cc1ccc(O)cc1)C(N)=O)[C@@H](C)O
B4: Compound No. 44 (Pal-KKLRSMTDKYRL-amide) (peptide)
peptide: Palmitoyl-KKLRSMTDKYRL-NH2
SMILES: CCCCCCCCCCCCCCCC(=O)N[C@@H](CCCCN)C(=O)N[C@@H](CCCCN)C(=O)N[C@@H](CC(C)C)C(=O)N[C@@H](CCCNC(=N)N)C(=O)N[C@@H](CO)C(=O)N[C@@H](CCSC)C(=O)N[C@H](C(=O)N[C@@H](CC(=O)O)C(=O)N[C@@H](CCCCN)C(=O)N[C@@H](Cc1ccc(O)cc1)C(=O)N[C@@H](CCCNC(=N)N)C(=O)N[C@@H](CC(C)C)C(N)=O)[C@@H](C)O
B5: CXCR4 i1 loop compound 45 (peptide)
peptide: Palmitoyl-KKLRSMTDKYR-NH2
SMILES: CCCCCCCCCCCCCCCC(=O)N[C@@H](CCCCN)C(=O)N[C@@H](CCCCN)C(=O)N[C@@H](CC(C)C)C(=O)N[C@@H](CCCNC(=N)N)C(=O)N[C@@H](CO)C(=O)N[C@@H](CCSC)C(=O)N[C@H](C(=O)N[C@@H](CC(=O)O)C(=O)N[C@@H](CCCCN)C(=O)N[C@@H](Cc1ccc(O)cc1)C(=O)N[C@@H](CCCNC(=N)N)C(N)=O)[C@@H](C)O

Biological target: CXCR4 receptor (human, UniProt P61073 1-352)
Sequence (P61073 whole entry): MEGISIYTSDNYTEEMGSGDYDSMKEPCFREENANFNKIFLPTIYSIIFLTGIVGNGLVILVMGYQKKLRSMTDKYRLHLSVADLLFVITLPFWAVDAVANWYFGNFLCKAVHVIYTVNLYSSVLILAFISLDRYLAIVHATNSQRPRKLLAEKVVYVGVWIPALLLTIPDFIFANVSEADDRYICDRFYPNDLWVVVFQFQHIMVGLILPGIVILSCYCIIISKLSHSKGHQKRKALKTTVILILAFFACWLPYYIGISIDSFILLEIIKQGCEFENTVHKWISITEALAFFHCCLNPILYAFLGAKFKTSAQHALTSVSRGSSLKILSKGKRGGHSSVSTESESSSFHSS
Assay: cell-based or functional assay

Row | Binder | AUC (% of), CHTX, SUP B-15, 1.0 uM | Max (% of), CHTX, SUP B-15, 1.0 uM | Peak Ratio, CHTX, CEM, 0.01 uM | Peak Ratio, CHTX, CEM, 0.03 uM | Peak Ratio, CHTX, CEM, 0.1 uM | Peak Ratio, CHTX, CEM, 0.3 uM | Peak Ratio, CHTX, CEM, 3.0 uM | Peak Ratio, CHTX, SUP B-15, 1.0 uM | AUC (% of), CHTX, CEM, 1.0 uM | Max (% of), CHTX, CEM, 1.0 uM | Peak Ratio, CHTX, CEM, 1.0 uM
1 | B1 | 70.8% | 55.8% | 1 | 1 | 0.2 | 0.04 | 0.2 | 0.04 | – | – | –
2 | B2 | – | – | – | – | – | – | – | – | 53% | 53.5% | 5
3 | B3 | 87.2% | 82.9% | – | – | – | – | – | 0.2 | – | – | –
4 | B4 | 25.9% | 31.5% | – | – | – | – | – | 0.2 | – | – | –
5 | B5 | 178% | 194% | – | – | – | – | – | 1 | – | – | –

From patent publication US20130210709A1 (ANCHOR THERAPEUTICS, published 2013)
